Reference: paper doi:10.1101/2020.07.09.195545
Read-outs that look alike come from different tables or passages of the source.

Legend:
rLCRF-SBP [1] = target: T1, rLCRF-SBP (Chlamydomonas reinhardtii, UniProt A0A2K3E5K7 866-1032); assay: EMSA
rLCRF-SBP [2] = target: T1, rLCRF-SBP; assay: EMSA; remark: listed apart in the source

B1: mutated GTAC-consensus 30 bp (shuffled core) (dsDNA)
DNA 1: GTCGCCACTGCGAGATCCACTGAGAGATCG
DNA 2: CGATCTCTCAGTGGATCTCGCAGTGGCGAC
- binding result (rLCRF-SBP [1]): no binding

B2: GTAC-consensus 30 bp (dsDNA)
DNA 1: GTCGCCGTACCGAGATCCGTACAGAGATCG
DNA 2: CGATCTCTGTACGGATCTCGGTACGGCGAC
- binding result (rLCRF-SBP [2]): binds
